From the Immune Epitope Database (IEDB) come the findings set out here.

Some results are limits rather than exact numbers.

Usually Kd stands for the concentration at which binding is half-saturated. The IC50 is the concentration needed to halve the response being measured. A low value points to greater potency.

Assay [1] concerns the target HLA-A*30:02. The assay can be described thus: IEDB peptide-MHC binding, purified MHC/competitive/radioactivity; filed as Kd, often an IC50 or EC50 that approximates it; ≥ and ≤ were set here for values at or beyond the usual limits of such assays.
Assay [2] addresses HLA-A*02:01. The assay can be described thus: IEDB peptide-MHC binding, purified MHC/competitive/fluorescence; filed as Kd, often an IC50 or EC50 that approximates it; ≥ and ≤ were set here for values at or beyond the usual limits of such assays.
Assay [3] deals with HLA-A*69:01. The assay can be described thus: IEDB peptide-MHC binding, purified MHC/direct/fluorescence; filed as Kd, often an IC50 or EC50 that approximates it; ≥ and ≤ were set here for values at or beyond the usual limits of such assays.
Assay [4] has as its target HLA-A*02:01. The description is as above. Particulars: source organism: Burkholderia mallei.
Assay [5] has as its target HLA-B*40:01. The description is as above. As to conditions: source organism: Influenza A virus.
The target in assay [6] is HLA-A*02:01. The experiment in a line: IEDB peptide-MHC binding, purified MHC/competitive/fluorescence; ≥ and ≤ were set here for values at or beyond the usual limits of such assays. Particulars: source organism: Sudan ebolavirus.
Assay [7] concerns the target HLA-A*03:01. The assay can be described thus: IEDB peptide-MHC binding, purified MHC/direct/fluorescence; filed as Kd, often an IC50 or EC50 that approximates it; ≥ and ≤ were set here for values at or beyond the usual limits of such assays. Particulars: source organism: Escherichia coli.
Assay [8] addresses HLA-A*02:02. The experiment in a line: IEDB peptide-MHC binding, purified MHC/competitive/radioactivity; filed as Kd, often an IC50 or EC50 that approximates it; ≥ and ≤ were set here for values at or beyond the usual limits of such assays.
Assay [9] addresses HLA-A*02:03. The assay is described as above.
For assay [10], the target named is HLA-A*02:06. The assay is described as above.
The target of assay [11] is HLA-A*01:01. The assay can be described thus: IEDB peptide-MHC binding, purified MHC/direct/fluorescence; filed as Kd, often an IC50 or EC50 that approximates it; ≥ and ≤ were set here for values at or beyond the usual limits of such assays. Particulars: source organism: West Nile virus.
Assay [12] has as its target HLA-A*24:02. The assay can be described thus: IEDB peptide-MHC binding, purified MHC/competitive/radioactivity; filed as Kd, often an IC50 or EC50 that approximates it; ≥ and ≤ were set here for values at or beyond the usual limits of such assays.
The target in assay [13] is HLA-A*01:01. The assay is described as above. Particulars: source organism: Dengue virus 2 Jamaica/1409/1983.
Setting [14] is: source organism: Dengue virus 1 Brazil/97-11/1997.
Where [15] appears, read: source organism: Vaccinia virus WR.
The mark [16] stands for this setting: source organism: SARS coronavirus Tor2.

For KNEHKSTWHY, the Kd in assay [1] (setting [14]) amounted to 450 nM.
As for YLVVVGAVGV, the Kd in assay [2] (source organism: unidentified) amounted to 10 nM.
LLLGGTSEI returned a Kd in [3] (source organism: Mycobacterium tuberculosis) of 846 nM.
As for VLRGRHDAA, the values for the Kd in [4] and in [3] (source organism: Burkholderia mallei) were 9250 nM and no less than 20000 nM, respectively.
For VQHPELTGL, in [5], the Kd was found to be 136 nM.
RGDLPVWLAY: the Kd in [1] (source organism: Dengue virus 2 Jamaica/1409/1983) was found to be 6.85 nM.
Sequence KAFSMPLGV had an IC50 in assay [6] of 9080 nM.
LLPFGQLSI had a Kd in assay [2] (source organism: Escherichia coli O139:H28 str. E24377A) of 147 nM.
Consider LPYTFMLRK, for which, in assay [7], the Kd is no less than 20000 nM.
Consider IASILSLETV, for which the values for the Kd in assay [8] (setting [15]), in [9] (setting [15]) and in assay [10] (setting [15]) were 234 nM, 92.8 nM and 47.3 nM, respectively.
In turn, MTRGILGSY showed a Kd in [11] of 7000 nM.
Regarding SIPISELSRL, the Kd in assay [8] (setting [15]) is 252 nM; in [9] (setting [15]), 60.6 nM; in assay [10] (setting [15]), 78.2 nM.
As for IMSIGFEARI, the results for the Kd in assay [8] (setting [15]), in assay [9] (setting [15]) and in [10] (setting [15]) were 703 nM, 1500 nM and 1600 nM, respectively.
As for LMSDNPKAST, the values for the Kd in assay [8] (setting [15]), in assay [9] (setting [15]) and in assay [10] (setting [15]) were 8880 nM, 938 nM and no less than 47700 nM, respectively.
As for RVNDLNRMPT, the Kd is 1360 nM in [8] (setting [15]), 1440 nM in assay [9] (setting [15]) and 7720 nM in assay [10] (setting [15]).
For the sequence ILYYGANGST, the equilibrium dissociation constant (Kd) in [8] (setting [15]) amounted to 341 nM; in [9] (setting [15]), 39.3 nM; in [10] (setting [15]), 1840 nM.
For RVFKKIMSI the same measures were 350 nM, 0.18 nM and 75.2 nM.
In the case of TAIRAGYSI, the Kd was 14500 nM in [8] (setting [15]), 9200 nM in assay [9] (setting [15]) and 7690 nM in assay [10] (setting [15]).
Sequence LLVNEFYI showed a Kd in assay [2] (setting [15]) of 58.7 nM.
On to IWGRKSWPL, for which the Kd in assay [12] (setting [14]) was determined as 93.3 nM.
On to AIAACAMLLV, for which the Kd is 5.9 nM in assay [8] (setting [16]), 31.6 nM in [9] (setting [16]) and 77.8 nM in assay [10] (setting [16]).
Turning to DVDIPTFNSL, the Kd in assay [8] (setting [15]) is 1810 nM; in assay [9] (setting [15]), 1030 nM; in assay [10] (setting [15]), 9710 nM.
YLVQQESSFV: the Kd in [8] (setting [16]) came to 12700 nM; in assay [9] (setting [16]), 17.5 nM; in assay [10] (setting [16]), 386 nM.
For the sequence LIQYRQQLEL, the Kd in assay [8] (setting [15]) is no less than 32800 nM; in assay [9] (setting [15]), 19500 nM; in assay [10] (setting [15]) it was no less than 52600 nM.
As to LFSGVSWIM, the Kd in [12] (source organism: Dengue virus 3 Singapore/8120/1995) is 141 nM.
For the sequence VMYASALVLL, the Kd was 0.251 nM in [8] (setting [16]), 4.03 nM in assay [9] (setting [16]) and 41.4 nM in [10] (setting [16]).
For the sequence ALFGIKLPAL, the Kd in assay [2] (source organism: Vaccinia virus Copenhagen) was 0.3 nM.
Turning to VMHINSPFKV, the Kd in assay [8] (setting [15]) stood at 60.3 nM; in assay [9] (setting [15]), 2.51 nM; in assay [10] (setting [15]), 393 nM.
On to HTQTAGPWHL, for which the Kd in [13] was no less than 70400 nM.
Regarding PASISSVLT, the Kd came out at 1380 nM in assay [8] (setting [15]), 1360 nM in [9] (setting [15]) and 1490 nM in assay [10] (setting [15]).
